Data published in the DeepSol protein solubility set.

Experiment: soluble on expression in E. coli; label from the status in PepcDB or PDB records
For “MSLTGSSSITRTCAVIFSSGFRFMDLLHAVPYAALWHGRFEHPVLRIACILSIAAGNRVPICFESITRRIRPMTLHRPAPHPVFSLAETSGPVLGDLPGWKLSDLYPSGDSPEYKRDLEKAASMAAAFEAKWKDKLESAAKAKGEDGIGAALKDYEALDDLIGRIGSFAGLTYFSDTSNPANGKLYGDAQAKLTEISAHLLFFTLELNRIDDAVMDACMANDAAAGHYRPWLVDLRKDKPHQLDDQLEQLFLEKSMTSAAAFNRLFDETMADLRFDIDGASLSLEVTLNMLQEPEPETRRKAAEALSATFKDNLRVFTLITNTLAKDKDISDRWRNFEDIADSRHLANRVERDVVDALAAAVKKAYPRLSHRYYAMKAKWLGMEQMNYWDRNAPLPDTSNTIIPWDEAKDTVLSAYGNFAPEMADIARRFFDEEWIDAPARPGKAPGAFAHPTVPSAHPYVLVNYLGKPRDVMTLAHELGHGVHQVLAGQQGALMCATPLTLAETASVFGEMLTFRKLLDDTKDIRERKAMLARKVEDMINTVVRQIAFYEFERKLHTARKEGELTSEQIGELWLSVQAESLGPAIRISEGYETWWTYIPHFIHSPFYVYAYAFGDCLVNSLYAVYQKAEAGFQEKYFELLKAGGTKHHSELLKPFGLDATDPSFWDKGLSMIEGLIDELEELDRKQAEGHHHHHH”, the “soluble on expression in E. coli” value was “soluble”. In the case of “MSLTHEEAVAIHKEKMEALEMQMKLILVLDLDQTVLHTTYGTSSLEGTVKFVIDRCRYCVKLRPNLDYMLRRISKLYEIHVYTMGTRAYAERIVEIIDPSGKYFDDRIITRDENQGVLVKRLSRLFPHDHRNIVILDDRPDVWDYCENLVLIRPFWYFNRVDINDPLRLKRKIEKEAGENKALEEGHHHHHH”, the “soluble on expression in E. coli” value was “not soluble”. In the case of “MSLTIKEIADKVNLSPTTVSNVIHGRKGKVSPDNYKKISRALEESKYVSNMGGRLLGRHGSKIIAVILNYERRSEMNVVSDPFYNQIVGFLEEEIRKKSYFMMLYTSGSVTESLRLATAWDIEGLIVLGSHPDDAKNFIKQQKRPVAFIDTYVDKESMTDDFINVGLQDFKGGYQITNYLIGLGHRRIGFFADGNQLLGVDQQRFAGFKKALSEADINLENPGFFGLDYRTNQRHIFLKKFSETKLKDYTALVFTSDFLAVDAINVFLDNGFKVPEDISITGFDHNIFSEQCRPKLTTIGQNVQKKAVLAVDFLTERIQSKQAIKKINLLLDAELIVQDSTAREGHHHHHH”, the “soluble on expression in E. coli” value was “soluble”. For “MSLTKDILILAVETSCDETSVSVIKNGRDILSNTVLSQIESHKRFGGVVPEVASRHHVEGITTTINEALVDADVSMEDIDAIAVTEGPGLIGALLIGVNAAKALAFAYDKPLIPVHHIAGHIYANHIEEPLTFPLIALIVSGGHTELVYMKDHLSFEVIGETRDDAVGEAYDKVARTIGLNYPGGPQVDRLAAEGEDTYSFPRVWLDKDSYDFSFSGLKSAVINQLHNQRQKNIPIIEANVATSFQNSVVEVLTFKAIQACKEYSVQRLIVAGGVASNKGLRQSLADQCKVNDIQLTIPSPKLCTDNAAMIGVAGHSLYQQGRFADLALNGHSNIDLEEYSAEEGHHHHHH”, the “soluble on expression in E. coli” value was “soluble”. For “MSLTKTEGKTASAAVKDILLSNPDGLREVIRTVMQEVLEAEMDEALGAAKGERTPERLGYRSGHYGRTLITRVGKLELRVPQDRSGHFSTELFERYQRSERALVATLAEMYVQGVSTRKVKAITEELCGHAFSASSISAINKRLDESLKAFAERSLQEPFAYLILDARYEKVREAGVVMSQAVLIAVGIDWDGRRQILSVEMAGRESRCAWKNFLVRLKGRGLKGVELVVSDDHAGLVAAIGEVIPEAAWQRCYVHFLRNALDHLPRKHGDDCLQELRWLYDRRDLDEAKADLAAWLGKWSVRYPRLTSWVEETIEQTLTFFRLPRQHHKHLKSTNMLERLNEEIRRRTYVVRIFPNTESCLRLVRALAVETHENWMEANRYINMDDLREHKKLALRQAAEGHHHHHH”, the “soluble on expression in E. coli” value was “soluble”. In the case of “MSLTLADKVVYEEEIQKSRFIAKAAPVASEEEALAFLAENREPEATHNGHAYKIGLLYRFSDDGEPSGTAGRPILHAIEAQGLDRVAVLVVRYFGGVKLGAGGLVRAYGGVAAEALRRAPKVPLVERVGLAFLVPFAEVGRVYALLEARALKAEETYTPEGVRFALLLPKPEREGFLRALLDATRGQVALE”, the “soluble on expression in E. coli” value was “soluble”. With “MSLTLDLRESEIVEAVYESNHTWVSVEAKIDYELDPTVLFHLTEENAGDRFYYKKNDNKTSFFGYHAITRFKNDFENKQSIFREWQKYKSDIELIHPSSDKHHLKICGGFQFSMHKSGDEWREFGINHFILPEVLITMENGVSYITYTVKAEQFEIEQFKALIAHLTQNTIDSEFEIGNIKRIEDIYKDEWRDLVKDTIDVLDEHKKIVLARKRLVMFDKNINIPYILQKASQGEHNSYLFVLESQDSIFFSQTPEQLMEVNNGILSTKAVAGTIKRTHQDEVDKENIQAFLNDDKNLNEHRFVVESILNDIAPYVRDITFNETPQILTNDHLYHLYTKIKGQLENDSYIGLLDNLHPTPALGGYPKAEAIEYIEQNEFGTRGLYGAPVGYIDMNDDCEFIVAIRSMLIKKNQATLFAGCGIVKNSDADSEVEETAVKFNPMMKALGVEEYEGHHHHHH” the “soluble on expression in E. coli” value was “soluble”. In the case of “MSLTLGIAFVGSGFSAKFHLRGLVGVRNVEVKGVYSRNLNSSKEFAMLSEQLGLGKPKVYSDISKMLSDKEINAVWLTVPNDVHLEYTKLIAEEVSQGRSNIHGITIEKPLARNVKEAKEMIRLVEKAGLLHGYLENQIFMPSVVRAREAIWEIGSRNSGRPYLARAAEEHSGPHNSWFWRPTISGGGALIDMTCHSLEATRFLLTDPAKTKSSLKPKTVYAETKTLKWNKKEYAQYLKEKYNVDFLKEPAEDYALTIVTYEDDLGNSVLAETRTSWNYVGPGLRLSVEVLGPEYSVNINTLQSELSVFFSRNIKLPQSEAFVEKQNADQGLMPIILDEAVVYGYQGEDRHMVESFISRKMPFENWYDGLLIVQLMMHAYLSAENGRKISFDPQKVEDFIPKVARGLYSAEGHHHHHH”, the “soluble on expression in E. coli” value was “soluble”. In the case of “MSLTMPAESAATVRGRRYPADPEWFCDFRTFPVQGLGPEVGVHRRDPSSVLTVDGRYHVWYTRSTGETDGFGTGDPMAKVFPWDWSEIWHATSDDGATWVEQGRALGRGEPGSYDDRSVFTPEVLEHQGWFYLVYQVIRSPYALRSFESIAMAKAPSPDGPWVRSPQPILRPQADGEWAGEEDNRLSVVSQGSFDSHKVHDPILVPFQGRFFLYYKGEQMGEGFSAGGRTTRWGLAIADDIEGPYHRCPANPVTNSGHETCVWRYGDGIAAMLTTDGPERNTIQFAPDGINFEIMAHIANPPVATGPLRLPDHAVAPLDGVRWGLCHDVTASWHYIQGFAADERQKMFYTRGLSPETAESAEADALPAPHEKEGHHHHHH”, the “soluble on expression in E. coli” value was “soluble”. For “MSLTPATQPLINAEPAVAAQTEQNPQVGQVMPGVQGADAPVVAQNGPSRDVKLTFAQIAPPPGSMVLRGINPNGSIEFGMRSDEVVTKAMLNLEYTPSPSLLPVQSQLKVYLNDELMGVLPVTKEQLGKKTLAQMPINPLFITDFNRVRLEFVGHYQDVCENPASTTLWLDVGRSSGLDLTYQTLNVKNDLSHFPVPFFDPRDNRTNTLPMVFAGAPDVGLQQASAIVASWFGSRSGWRGQNFPVLYNQLPDRNAIVFATNDKRPDFLRDHPAVKAPVIEMINHPQNPYVKLLVVFGRDDKDLLQAAKGIAQGNILFRGESVVVNEVKPLLPRKPYDAPNWVRTDRPVTFGELKTYEEQLQSSGLEPAAINVSLNLPPDLYLMRSTGIDMDINYRYTMPPVKDSSRMDISLNNQFLQSFNLSSKQEANRLLLRIPVLQGLLDGKTDVSIPALKLGATNQLRFDFEYMNPMPGGSVDNCITFQPVQNHVVIGDDSTIDFSKYYHFIPMPDLRAFANAGFPFSRMADLSQTITVMPKTPNEAQMETLLNTVGFIGAQTGFPAINLTVTDDGSTIQGKDADIMIIGGIPDKLKDDKQIDLLVQATESWVKTPMRQTPFPGIVPDESDRAAETQSTLTSSGAMAAVIGFQSPYNDQRSVIALLADSPRGYEMLNDAVNDSGKRATMFGSVAVIRESGINSLRVGDVYYVGHLPWFERLWYALANHPILEGHHHHHH”, the “soluble on expression in E. coli” value was “soluble”. For “MSLTPEKLPLHVLLAEDSVVNQKVALSMLGKLGCFPDVAANGREAIDAMRQKRYDLVFMDCQMPEIDGYEVTRRIRKDHSLLCSPDIPVVAMTANAMKGDREKCIDAGMDDFMAKPLKKSDFQAIFERYFPGLFVRESSKEAGAGALTTDDVFLIDDVLFRLQNDREIILIIIGQFLLEAALQITELQAAAAEHDTERVRILSHTIKGAAATVGGQELSRCAAIIEQGAKSGDLTGIDEHLRDLNASYLRFKERVEASGWCEEGGEGHHHHHH”, the “soluble on expression in E. coli” value was “soluble”. With “MSLTPRFIDLHTHTTASDGSDSPADLVRKATEAGLAAVAVTDHDTVAGLDEAVAMGHETGIEVVRGCELGVRSEYGEIHILGLWLPEKPETLLDAMKELRRHRNERNERIVDNLRTLGMDITYEEVRALSGGVSVGRPHIALALLRHGYIRTPQEAFDRFIGPGAPAYAPKKVFSPAEGVRLLASCGATVAIAHPMLLRCPEEWLDDTVADLKVAGLDAIEAYHSEHSHKDERRCVDIADRHGLVLTGGSDYHGKAKPAISLGRGRGGLRVTTHVLDNLKRHRRERGLEGHHHHHH” the “soluble on expression in E. coli” value was “soluble”. For “MSLTQNIRPLPQFKYHPKPLETGAFEQDKTVECDCCEQQTSVYYSGPFYCVDEVEHLCPWCIADGSAAEKFAGSFQDDASIEGVEFEYDEEDEFAGIKNTYPDEMLKELVERTPGYHGWQQEFWLAHCGDFCVFIGYVGWNDIKDRLDEFANLEEDCENFGIRNSDLAKCLQKGGHCQGYLFRCLHCGKLRLWGDFSEGGSHHHHHH”, the “soluble on expression in E. coli” value was “soluble”. With “MSLTRAAVNPKPFVVPELKQWTGKDGNFTPGKDTRIVCTSQNPELLRIARMFADDYQQMFGQTLSVAQGKATSGDFVLSLSADKKLGEEGYAIKITDRVAISAPTPTGLYWSTRTLLQLAEQNQERSLPQGTIRDYPDYPLRGFMIDCGRKFIPMAYLQDLVKIMAYYKMNTLQVHLNDNGFKQYFEHNWDKTYAAFRLESETYPGLTARDGSYSKKEFIDFQKQAASNFVEIIPEIDVPAHSLALTHYKPEIGSKEYGMDHLDLFKPETYEFVDALFKEYLEGDNPVFVGKRVHIGTDEYSNAKKDVVEKFRAFTDHYIRFVEGFGKQAVVWGALSHAKGDTPVKSENVVMNAWYNGYADPATMIKDGYQLISIPDGLVYIVPKAGYYYDYLNEPYLYKEWTPAHIGKAVFDEKHPSILGGMFAIWNDHVGNGISVKDIHHRIFSPLQTLSVKMWTGAQTGIPYETFNEKRALLSEAPGVNQLARIGKKPELVYERSTVAPGSTSDYPEIGYNYTVSFDITGAKESEGTELFRSPNAVFYLSDPIRGEGHHHHHH” the “soluble on expression in E. coli” value was “soluble”. For “MSLTSKPYIMGVDIGTSSTKAVLFNQRGEVIFRQATHYELITDETGKAEESPTEIFDAVLTSIQAVMKNINTEELAGISFSSAMHSLIMVGSNGELLTECITWADGRSSETLEKVKRDNYLFQLYEATGTPIHPMSPFAKICWLKEEKPTLFKRTEKFVDIKSYILYRLFGVWVMDESLASGTGLYNIMEHDWEFEAMEIVKLTPDFLPKVVPETYQLAGVKKEYAELMGIPENLPFIIGGSDGALANIGIQATGQNDVTITVGTSGAVRKLTDQFQIDSRGRTFCYGAGDGYFIAGGAVNNGGKVVEWGLQQFGSEAEISRRDFASFIAKIEEVPPGAAGLLFQPYLLGERAPFWTNDIRGGFVGLTINHTKAHFIRAILEGVAFNLAEVYEAVSAPDDIIYVTGGISAHDAWCKLLADILNREIRVPHTIEGSSLGAAIIGMRSLGILKDLNLKHTLPIKAVYHPSENVLKYAELRLIFKQVTTQLMSSYSQLNSWQKKFDINSEGHHHHHH”, the “soluble on expression in E. coli” value was “soluble”.
